Assay results from patent publication US20150258192A1, “COMPOSITIONS AND METHODS FOR PREVENTING OR TREATING CHRONIC LUNG ALLOGRAFT DYSFUNCTION (CLAD) AND IDIOPATHIC PULMONARY FIBROSIS (IPF)” (priority 2014, published 2015).
No end group written: not given here.

How the values were obtained:
Test in all cases: Kinase Profiling Assay
Assay type in all cases: biochemical
Details in all cases: peptide 100 μM
cKit(V654A)(h) = cKit(V654A)(h) (Homo sapiens, UniProt P10721, V654A)
Summary of the method: (§1)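 Scintillation counting quantifies radiolabeled, positively charged substrate retained on a negatively charged filter after kinase reaction with labeled ATP; inhibitor peptide present.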

Abl(Q252H)(h) = Abl(Q252H)(h) (Homo sapiens, UniProt P00519, Q252H)
Summary of the method: as §1

TAO2(h) = molecular target: T1, TAO2(h) (Homo sapiens, UniProt Q9UL54)
T1 construct: purchased Millipore
T1 sequence (Q9UL54 1-1235): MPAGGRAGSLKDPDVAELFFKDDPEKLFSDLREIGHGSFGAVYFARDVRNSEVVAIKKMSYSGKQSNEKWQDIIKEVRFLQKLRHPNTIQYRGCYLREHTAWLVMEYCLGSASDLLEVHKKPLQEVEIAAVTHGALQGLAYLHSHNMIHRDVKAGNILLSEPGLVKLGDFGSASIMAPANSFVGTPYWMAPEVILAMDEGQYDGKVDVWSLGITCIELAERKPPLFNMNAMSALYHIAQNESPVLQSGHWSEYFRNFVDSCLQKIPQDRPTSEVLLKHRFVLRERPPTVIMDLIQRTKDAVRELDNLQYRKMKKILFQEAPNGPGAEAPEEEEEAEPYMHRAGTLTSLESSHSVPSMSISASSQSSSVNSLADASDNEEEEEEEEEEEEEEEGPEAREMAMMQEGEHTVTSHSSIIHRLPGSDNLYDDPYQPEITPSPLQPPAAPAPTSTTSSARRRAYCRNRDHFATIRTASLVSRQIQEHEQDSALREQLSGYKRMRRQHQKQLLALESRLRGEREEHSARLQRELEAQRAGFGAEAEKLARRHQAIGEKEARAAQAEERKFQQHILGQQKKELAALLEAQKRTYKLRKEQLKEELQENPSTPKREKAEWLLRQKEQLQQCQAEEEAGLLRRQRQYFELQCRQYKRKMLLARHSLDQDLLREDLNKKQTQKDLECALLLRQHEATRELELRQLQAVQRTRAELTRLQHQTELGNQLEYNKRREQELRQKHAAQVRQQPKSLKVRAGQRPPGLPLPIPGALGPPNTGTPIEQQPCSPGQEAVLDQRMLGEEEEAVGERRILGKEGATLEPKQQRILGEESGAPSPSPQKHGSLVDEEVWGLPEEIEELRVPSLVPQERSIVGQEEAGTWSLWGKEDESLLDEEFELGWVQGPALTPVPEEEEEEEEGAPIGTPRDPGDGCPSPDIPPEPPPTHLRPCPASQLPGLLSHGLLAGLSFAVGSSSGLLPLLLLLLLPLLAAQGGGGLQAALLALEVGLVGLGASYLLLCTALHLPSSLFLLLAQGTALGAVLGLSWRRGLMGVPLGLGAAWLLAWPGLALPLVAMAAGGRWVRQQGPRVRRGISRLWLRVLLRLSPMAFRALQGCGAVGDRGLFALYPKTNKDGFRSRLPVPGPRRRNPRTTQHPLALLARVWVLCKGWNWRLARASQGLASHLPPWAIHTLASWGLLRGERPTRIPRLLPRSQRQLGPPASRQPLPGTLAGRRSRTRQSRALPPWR
Summary of the method: as §1

FGFR1(h) = FGFR1(h) (Homo sapiens, UniProt P11362)
Summary of the method: as §1

GRK7(h) = molecular target: T2, GRK7(h) (Homo sapiens, UniProt Q8WTQ7)
T2 construct: purchased Millipore
T2 sequence (Q8WTQ7 1-553): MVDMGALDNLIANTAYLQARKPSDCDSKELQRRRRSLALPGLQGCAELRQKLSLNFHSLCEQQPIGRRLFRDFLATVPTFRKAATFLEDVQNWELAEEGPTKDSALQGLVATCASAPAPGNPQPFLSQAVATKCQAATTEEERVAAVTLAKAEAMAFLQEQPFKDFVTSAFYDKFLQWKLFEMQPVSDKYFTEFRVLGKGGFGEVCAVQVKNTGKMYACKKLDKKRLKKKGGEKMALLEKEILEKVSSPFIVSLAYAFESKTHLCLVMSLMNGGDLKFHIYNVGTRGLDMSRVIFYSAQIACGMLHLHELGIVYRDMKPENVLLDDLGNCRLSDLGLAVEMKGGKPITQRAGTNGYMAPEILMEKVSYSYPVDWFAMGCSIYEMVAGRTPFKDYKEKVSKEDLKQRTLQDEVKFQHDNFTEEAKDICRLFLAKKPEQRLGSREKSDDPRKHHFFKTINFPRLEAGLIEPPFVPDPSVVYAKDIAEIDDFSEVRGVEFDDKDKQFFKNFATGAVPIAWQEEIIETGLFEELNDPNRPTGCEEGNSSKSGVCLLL
Summary of the method: as §1

Tec(h) activated = molecular target: T3, Tec(h) activated (Homo sapiens, UniProt P42680)
T3 construct: purchased Millipore
T3 sequence (P42680 1-631): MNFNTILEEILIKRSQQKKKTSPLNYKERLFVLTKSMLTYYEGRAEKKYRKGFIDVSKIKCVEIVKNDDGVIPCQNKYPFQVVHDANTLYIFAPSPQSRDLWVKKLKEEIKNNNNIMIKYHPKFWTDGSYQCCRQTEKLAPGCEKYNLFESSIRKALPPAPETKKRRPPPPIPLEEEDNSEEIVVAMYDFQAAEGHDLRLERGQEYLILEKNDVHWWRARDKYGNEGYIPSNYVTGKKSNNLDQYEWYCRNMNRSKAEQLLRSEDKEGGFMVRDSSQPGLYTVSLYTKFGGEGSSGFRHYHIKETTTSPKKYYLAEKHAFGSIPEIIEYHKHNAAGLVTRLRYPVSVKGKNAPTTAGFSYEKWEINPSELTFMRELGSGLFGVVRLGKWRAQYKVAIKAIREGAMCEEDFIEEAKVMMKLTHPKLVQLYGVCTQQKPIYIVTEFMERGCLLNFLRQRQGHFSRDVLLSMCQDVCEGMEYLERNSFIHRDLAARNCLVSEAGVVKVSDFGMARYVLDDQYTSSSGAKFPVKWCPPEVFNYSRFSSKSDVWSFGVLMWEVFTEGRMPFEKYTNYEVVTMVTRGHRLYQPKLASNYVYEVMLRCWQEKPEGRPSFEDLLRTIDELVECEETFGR
Summary of the method: as §1

ACK1(h) = ACK1(h) (Homo sapiens, UniProt Q07912)
Summary of the method: as §1

MAPK1(h) = molecular target: T4, MAPK1(h) (Homo sapiens, UniProt P27361)
T4 construct: purchased Millipore
Summary of the method: as §1

T4 sequence (P27361 whole entry): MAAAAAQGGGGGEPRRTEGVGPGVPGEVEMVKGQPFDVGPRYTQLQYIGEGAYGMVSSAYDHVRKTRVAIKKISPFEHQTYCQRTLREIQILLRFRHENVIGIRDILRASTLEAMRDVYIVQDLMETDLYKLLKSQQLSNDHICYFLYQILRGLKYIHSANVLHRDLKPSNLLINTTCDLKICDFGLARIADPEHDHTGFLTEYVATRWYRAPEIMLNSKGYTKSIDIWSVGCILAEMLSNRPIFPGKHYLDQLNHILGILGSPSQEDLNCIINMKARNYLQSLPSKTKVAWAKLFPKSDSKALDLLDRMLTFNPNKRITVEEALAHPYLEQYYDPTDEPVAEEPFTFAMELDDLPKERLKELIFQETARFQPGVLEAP
FGFR1(h), sequence (P11362 22-822): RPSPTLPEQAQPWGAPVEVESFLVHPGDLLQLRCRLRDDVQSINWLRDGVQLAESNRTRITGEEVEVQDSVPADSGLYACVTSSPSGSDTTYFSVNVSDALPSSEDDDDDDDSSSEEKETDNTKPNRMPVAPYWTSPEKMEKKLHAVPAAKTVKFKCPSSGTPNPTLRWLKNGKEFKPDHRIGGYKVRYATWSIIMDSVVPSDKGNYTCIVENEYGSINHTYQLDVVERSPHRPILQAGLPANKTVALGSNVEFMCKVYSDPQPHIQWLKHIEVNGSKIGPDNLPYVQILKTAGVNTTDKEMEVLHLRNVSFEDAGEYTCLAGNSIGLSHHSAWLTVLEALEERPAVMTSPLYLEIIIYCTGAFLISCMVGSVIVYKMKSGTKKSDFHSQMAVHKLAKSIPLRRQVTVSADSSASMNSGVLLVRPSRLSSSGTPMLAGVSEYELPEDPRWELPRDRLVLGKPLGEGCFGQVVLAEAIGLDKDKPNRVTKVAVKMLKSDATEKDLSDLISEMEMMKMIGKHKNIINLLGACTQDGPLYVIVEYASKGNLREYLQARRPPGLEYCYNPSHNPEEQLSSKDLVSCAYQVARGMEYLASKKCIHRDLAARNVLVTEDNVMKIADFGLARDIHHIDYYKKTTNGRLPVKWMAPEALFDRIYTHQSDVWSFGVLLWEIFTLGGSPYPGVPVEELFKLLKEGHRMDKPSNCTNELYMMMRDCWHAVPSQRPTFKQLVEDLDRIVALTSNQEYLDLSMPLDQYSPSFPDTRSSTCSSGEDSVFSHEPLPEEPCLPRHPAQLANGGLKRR
ACK1(h), sequence (Q07912 whole entry): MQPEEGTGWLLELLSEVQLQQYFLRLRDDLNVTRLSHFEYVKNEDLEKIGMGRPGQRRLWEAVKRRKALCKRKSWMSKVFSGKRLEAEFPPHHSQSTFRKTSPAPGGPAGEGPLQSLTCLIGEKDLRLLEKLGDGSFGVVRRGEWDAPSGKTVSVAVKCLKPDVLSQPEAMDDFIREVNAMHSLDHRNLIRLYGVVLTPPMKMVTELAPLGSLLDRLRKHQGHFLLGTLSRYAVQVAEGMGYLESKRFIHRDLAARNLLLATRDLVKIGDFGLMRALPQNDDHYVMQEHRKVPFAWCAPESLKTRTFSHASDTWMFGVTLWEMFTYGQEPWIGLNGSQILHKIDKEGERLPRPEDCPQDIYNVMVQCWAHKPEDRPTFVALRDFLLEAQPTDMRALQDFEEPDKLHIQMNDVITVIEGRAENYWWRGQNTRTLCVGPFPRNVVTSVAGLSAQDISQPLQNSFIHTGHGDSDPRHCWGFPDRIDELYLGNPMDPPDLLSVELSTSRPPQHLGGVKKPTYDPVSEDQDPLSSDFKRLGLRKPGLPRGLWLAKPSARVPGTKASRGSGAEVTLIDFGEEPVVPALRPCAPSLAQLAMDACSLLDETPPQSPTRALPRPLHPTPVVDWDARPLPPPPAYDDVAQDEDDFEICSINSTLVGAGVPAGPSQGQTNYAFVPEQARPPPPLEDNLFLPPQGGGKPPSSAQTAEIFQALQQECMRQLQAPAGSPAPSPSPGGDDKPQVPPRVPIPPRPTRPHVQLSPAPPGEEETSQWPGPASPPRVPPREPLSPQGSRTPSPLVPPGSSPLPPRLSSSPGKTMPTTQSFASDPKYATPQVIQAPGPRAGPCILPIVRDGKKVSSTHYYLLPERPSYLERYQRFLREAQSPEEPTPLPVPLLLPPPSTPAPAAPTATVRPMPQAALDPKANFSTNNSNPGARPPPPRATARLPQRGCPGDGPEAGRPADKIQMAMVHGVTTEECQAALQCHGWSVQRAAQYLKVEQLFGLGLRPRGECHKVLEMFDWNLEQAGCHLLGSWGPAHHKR

| Sequence | % activity (cKit(V654A)(h)) [%] | % activity (Abl(Q252H)(h)) [%] | % activity (TAO2(h)) [%] | % activity (FGFR1(h)) [%] | % activity (GRK7(h)) [%] | % activity (Tec(h) activated) [%] | % activity (ACK1(h)) [%] | % activity (MAPK1(h)) [%] |
| --- | --- | --- | --- | --- | --- | --- | --- | --- |
| FAKLAARLYRKALARQLGVAA [MMI-0300] | 134 | 82 | 70 | 55 | 122 | 56 |  |  |
| HRRIKAWLKKIKALARQLGVAA (Mammal) [MMI-0500] | 223 | 40 | 15 | 18 | 93 | 33 | 64 |  |
| KAFAKLAARLYRKALARQLGVAA [MMI-0400] | 150 | 98 | 74 | 59 | 100 | 29 | 95 | 100 |
| YARAAARQARAKALARQLGVAA [MMI-0100] | 69 |  | 95 | 120 |  | 100 |  | 108 |
| YARAAARQARAKALNRQLGVA (Mammal) [MMI-0200] |  |  | 93 | 97 | 124 | 77 | 97 | 97 |
